Source: the DeepSol protein solubility set

test: soluble on expression in E. coli; label from the status in PepcDB or PDB records

Sequence	soluble on expression in E. coli
MGSDKIHHHHHHLAKRKNHAQAIETTGANLGFEPQLWQTANALRGSMDAAEYKHVVLGLIFLKYISDAFEEHRERLQNIPNADPEDPDEYRADNVFWVPPDARWVELRNNARQPNIGELIDQAMIAVERDNPSLKGVLPKDYARPALDQQRLGQLIDLVSNIPVGTASARSKDVLGRVYEYFLSQFASAEGKKGGEFYTPRCVVRLLVEMLEPYQGRVYDPCCGSAGMFIQSVEFIEAHATGNGNGSRARARISIYGQELNYTTWRLAKMNLAIRGIDGRIEQGDTFRNDRFPDLKADYILANPPFNMKEWGGEQLRNDKRWQYGIPPVGNANFAWVQHIVHHLAPAGVAGFVLANGSMSSNQSGEGEIRRKLIEADLVDCMVALPGQLFYSTQIPACLWFLARNRNNGKFRDRRKQILFIDARRLGRMVDRIHRELTDEEIERIACTYHAWRGESDAGEYRDIPGFCKSASLEDVRKHGYVLTPGRYVGSEVREDDDEPFAEKMQWLVAQLREQQAEAAKLDEAIVANLQELGFWEQKR	not soluble
MGHHHHHHSHMPYLVIEHLEDISEWLLLEYKHVAQWWGDKLIFTNVKPKERKILAEIGSVVTESITKLPVDRSKVIVLDLQAKEELKPEDISEDTIIVVGGILGDAIPRGRTRKLITSKMEGVKVRHIGRPQFSIDGASIIAKLISEGKRLEEIEYEENPTIKLDEFSEITFHYAVPKLNGKLLLTPGLIELQKKELGYLEEDEDDGLIEFFEGKGEL	soluble
MGSDKIHHHHHHMEIPPEILQSLIELGFTKYEVLTYWTLLVYGPSTAKEISIRSGIPYNRVYDTISSLKVRGFVTEIEGNPKVYAAYSPRIAFLRFKKELDEISEKLEKAISEVKREERCRPSIWRSHDFEEAIEMFKETLESSENEVIVVTPSEFFKSIRETLIGILDRGVTLSLYIDKVPDISDFEGRGNFFLRRFTKFNHLIGLADGKVVATIQNVSFMPPSPPSFKSTFKEIIFSQYSLTLEIFKESSLEVEQIMNPQDIRFFAVFHAADFVKRHLPSSTIFSEIVGRNVKTGEVEKLYGKVVGYTLSFREGVNNIQIETEKGIVKVGGMFAVIEDYESTNVRLMLES	not soluble
MGGVKKNALLDYVFTKALENLTALFTQLNITAVKEIIRPLETGHEAYFVLPIDARTLKVLMIELEESIPLARLWDLDVFNAKGNLLSRTDFDLSPRTCLVCGENAKICARTHKHEIDEIVDKIQSLAQNHDFAEHIGEQVYLALIQEARLSPKPGLVDAINNGSHKDMNLHTFEQSAISLKPFFTQFVLKGMMTAHLSENQILSEIRPLGLLAEKAMFKVTDGVNTHKGAIFSFGLVCTAIGRLLAQKSLVQSAVDFDVKLICSLVAQFTQGLTDELKNYPEHLPSTAGVRLFQKYGLTGVRGEAENGFNLIQTLLPQFDEYHQLEWEHRLLILLLNLMAINSDTNVVHRGGLAGLYFIQQTAQDLLTDQHLVTDKTALTQALMKFDTACIERNLSSGGSADLLALTIFFLSFRGN	not soluble
MDIISLRKSPQYLEEAIAYFQRKWADENSRMVYDNCFRTCLESESPLPQWYLLINGEGEIIGCAGLATNDFNSRMDLYPWLVALFIEEQYRGHNYGNLLIKAVEEDTRRLGFGNLYLCTTHTGYYEHFNFVYIGDCYHPWGEHTR	not soluble
MRAKKRKFLQKEELSKLLQSLDMSQIGFGWFVMLAAKTGMRYAEALAITPADFDWTAQTISINKTWDYKYNKGFAKTKTLSSVRTIKIDWQIVGQFKPLIKDFPEDEPIFVEKFGDGTYKRQFNSTINNFLAVKCNETGITQISFHALRHTHASVLLAEGVSIHTISARLGHADVGVTQETYAHVLDELQKKDDQKMLSVLMQIALEHHHHHH	not soluble
MKQLSFLPGEMTPQDRRLIQRALRALDRHLHEPGVAFTSTHAVREWLRLHMAALEREEFRVLYLDNQNQLIAHETLFTGTINRTEVHPREVVKRALHFNAAAVILAHNHPSGETTPSQADKTLTQRLVQVLQLVDIRVPDHLIVGGRQIYSFAEHGLL	not soluble
SSNPRSLEEEKYDMSGARLALILCVTKAREGSEEDLDALEHMFRQLRFESTMKRDPTAEQFQEELEKFQQAIDSREDPVSCAFVVLMAHGREGFLKGEDGEMVKLENLFEALNNKNCQALRAKPKVYIIQACRGEQRDPGETVGGDEIVMVIKDSPQTIPTYTDALHVYSTVEGYIAYRHDQKGSCFIQTLVDVFTKRKGHILELLTEVTRRMAEAELVQEGKARKTNPEIQSTLRKRLYLQ	soluble
MNLEKLEVSHDADSLCVVIEISKHSNIKYELDKESGALMVDRVLYGAQNYPANYGFVPNTLGSDGDPVDALVLSDVAFQAGSVVKARLVGVLNMEDESGMDEKLIALPIDKIDPTHSYVKDIDDLSKHTLDKIKHFFETYKDLEPNKWVKVKGFENKESAIKVLEKAIKAYQG	soluble
MNTPFDFPEGAGRLVYVRPVPVAELPEDVQSMARGLDHIYALHGADGERLALVRDRHLAFVLARQNDLAPVNVH	not soluble
KGHAWTHSAGEPLRVVAIQGNIAQELKWDPNQVRAQLDLYRDLSLPQQDVDLIVWPETAVPILQDMASGYLGAMGQVADEKNAALITGVPVRERLADGKSRYFNGITVVGEGAGTYLKQKLVPFGEYVPLQDLLRGLIAFFDLPMSDFARGPADQPLLKAKGYQIAPYICYEVVYPEFAAALAAQSQVLLTVSNDTWFGTSIGPLQHLQMAQMRALESGRWMIRATNNGVTGLIDPYGRIVRQIPQFQQGILRGEVIPMQGLTPYLQYR	not soluble
MGSDKIHHHHHHMIEVSRFWRDPALPFVEARQVGDGRKVCYAAHSHESFSIGVITGGRSTYINSDQCVEVGAGTTVLMNPGVVHTCNPVAGEPWSYLMLFVDQPWLQAVGFTLPTQTWSRSPVLYRRLLQAFADLFDARLPDREARLAALFHELPGMLGGNASEGGEGNPRLDAAAAFIRAHRSDPLSLEDICGACGLSRSYLIRAFRQRFGLTPHGYLLDQRVQLARAQLRQGRSIAEVAQEAGFADQAHLQRAFKQHLAATPGHYRNAVASLGAPAGAVQALKDQVNRAGDQ	not soluble
MITFEKVTVENESVVKEMFKSHSLGEKKVQYCVKVDDTYIGVIDYSVQEERAVLSQLIIHFDYQGYGYGTNTYFTFEEMMKQRNVKEIKVLKEKLTEKAKSFIESFGFTSEDEEYVKKI	not soluble
MGSDKIHHHHHHAQDDANCNSNSSISHEAVKAGNFKDAYTPWKAVLENCPTLRFYTFTDGYKILKGLLGQIKDRNSAEYKKYFDELMNTHDLRMKYTQEFLGKGVKVSSEDEALGIKAVDYIAFAPKVDVNQAYDWLKKSVDAAKAESAAATLFYFLQMSHDKLKEDPAHKEQFIQDYLAASEYADDAIAAADKESVKKAFGGIKDNLVALFINSGTADCESLQGIYGPKVETNQTDLNYLKKVISIMKMMKCTDSDAYQQASFYVYKIEPSAEAATGCAYQAYKKGDIDGSVKFFDEAINLETDNAKKAEKAYAAASVLTTAKKLSQARSYAQKAISFNENYGAPYILIANLYAMSPNWSDESALNKCTYFAVIDKLQKAKSVDPSVTEEVNKMISRYSAYTPQAKDLFMLGYKAGDRITIGGWIGESTTIR	not soluble
MGKTLFEKVWNAHVVTEVKDGPSILYIDKQLIHEVTSPQAFAGIEKRGIGVFRPERTLATPDHNVPTKGQNLPIVEDLSRFQVDKLTENCNKFGVTLYGLGHASQGVVHVVGPETGTTLPGMTIVCGDS	not soluble
GAMDPMKAKRVQAKIEMEFPSEDVAKVVYEAVLYEHLSVPYRRSEIDFKLEGKKIILDIKATDSSALRGTVNSYLRWIKAAIDVIEV	soluble
NTWKIFVGNVSAACTSQELRSLFERRGRVIECDVVKDYAFVHMEKEADAKAAIAQLNGKEVKGKRINVELSTKGQKK	soluble
